Results: PMC10713829

Columns and labels:
[1] = target: HLA-A*01:01/hβ2m complex (empty, peptide-free or peptide-receptive) (human); experiment: NMR titration
[2] = target: HLA-A*01:01/hβ2m complex (empty, peptide-free or peptide-receptive) (human); experiment: fluorescence polarisation
[3] = target: HLA-A*01:01/hβ2m complex (empty, peptide-free or peptide-receptive) (human); experiment: differential scanning fluorimetry

B1: NRAS_(55-64) Q61K peptide (…) (peptide)
peptide: ILDTAGKEEY
[1]
  half-life of peptide association (t1/2): < 3.7 h
[2]
  IC50: 260 nM
[3]
  reduction in the population of empty HLA-A*01:01 after 0.5 h with peptide: 50%
